Measurements as given in patent publication US20240132593A1 (KINETA, published 2024).
Several values for one entry are separate records, joined by “and”; a condition that tells them apart may be missing. Equal entries are not always repeated. One block for each binder: values may come before it.

What was measured:
[1] = biological target: T1, His-tagged recombinant human VISTA-ECD (Met 1 to Ala 194) (human, UniProt Q9H7M9 33-194); assay: ELISA, His-tagged human VISTA ECD on plate, mAb titrated
T1 construct: also called hu.VISTA; VISTA-His; not shown: His tag

[2] = biological target: T1, His-tagged recombinant human VISTA-ECD …; assay: BLI Octet, reversed format (avidity): hu VISTA-ECD-His on HIS1K sensor, mAb 133.3 nM
[3] = biological target: T2, His-tagged recombinant mouse VISTA-ECD (Met 1 to Ala 194) (mouse, UniProt Q9D659 33-194); assay: ELISA endpoint, His-VISTA on plate, mAb at 23 µg/mL
T2 construct: Bought (Sino Biological); not shown: His tag
T2 sequence: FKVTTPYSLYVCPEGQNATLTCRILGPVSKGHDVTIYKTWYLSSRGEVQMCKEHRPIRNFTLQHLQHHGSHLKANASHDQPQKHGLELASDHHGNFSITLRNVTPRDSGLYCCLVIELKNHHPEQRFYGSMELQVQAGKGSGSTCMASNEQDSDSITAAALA

[4] = biological target: T3, His-tagged recombinant cynomolgus monkey VISTA-ECD (Met 1 to Ala 194) (cynomolgus monkey, UniProt Q9H7M9 33-194 (human entry)); assay: BLI Octet, mAb on AHC sensor, cyno VISTA-ECD-His 300 nM
T3 construct: also called cyno VISTA; Cyno VISTA
T3 chain: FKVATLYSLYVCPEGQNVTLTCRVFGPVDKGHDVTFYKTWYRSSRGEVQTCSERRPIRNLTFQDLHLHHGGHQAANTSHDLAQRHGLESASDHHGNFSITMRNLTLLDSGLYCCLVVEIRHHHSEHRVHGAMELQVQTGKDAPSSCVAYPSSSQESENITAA
Description: (§1) Octet scouting: Antibody affinities were measured using biolayer interferometry (BLI) on the Octet Red 96 (ForteBio) system. Anti-human IgG Fc Capture (AHC) dip and read sensors (ForteBio) were used to capture each anti-VISTA antibody formatted as either an IgG1 or IgG4 and diluted to 20 μg/mL in PBS pH 7.4. AHC sensors were dipped into antibody solution for 180 s to capture each IgG on the sensor. An initial baseline was established by soaking each sensor in PBS pH 7.4 for an additional 120 s. […] Human, cynomolgus monkey, and mouse VISTA-ECD were evaluated. Studies were performed by association with VISTA-ECD for 240 s and dissociation in PBS pH 7.4 for 360 s. Data analysis was performed using Octet Data Analysis software version 9.0.0.14. In general, baseline alignment without subtraction was used for raw data processing. A Savitzky-Golay digital filter was used to remove high-frequency noise, and processed data were globally fit to a 1:1 binding model. Where binding was present, the affinity constant (KD) was calculated for each antibody-antigen pair.

[5] = biological target: T4, his-tagged human VISTA-ECD (human, UniProt Q9H7M9 33-194); assay: BLI sandwich binning; VISTA-ECD-His held by capture Ab VSTB-174 (competitor)
T4 construct: also called hu.VISTA; VISTA protein (Human recombinant, produced in HEK 293 cells, SinoBiologics); not shown: His tag

[6] = biological target: T4, his-tagged human VISTA-ECD; assay: BLI sandwich binning; VISTA-ECD-His held by capture Ab 269.1 (competitor)
Description: (§2) Octet binning studies: Epitope mapping was performed by BLI on the Octet system. AHC sensors were used to capture anti-VISTA antibody (20 μg/mL) over 100 s. Unbound sites on the sensor were blocked with a saturating amount (50 μg/mL) of pooled purified human IgG for 180 s. Antigen (his-tagged human VISTA-ECD at 100 nM) was bound to immobilized antibody for 180 s, after which the sensor was interrogated for the ability of a paired antibody to bind the antigen in the sandwiched format. Multiple pairing arrangements were interrogated such that each antibody was used as the capture antibody in the format at least one time. Data are represented as response (nm) for the secondary antibody.

[7] = biological target: T4, his-tagged human VISTA-ECD; assay: BLI sandwich binning; VISTA-ECD-His held by capture Ab 173.1 (competitor)
Description: as §2

[8] = biological target: T4, his-tagged human VISTA-ECD; assay: BLI sandwich binning; VISTA-ECD-His held by capture Ab 245.1 (competitor)
Description: as §2

[9] = biological target: T4, his-tagged human VISTA-ECD; assay: BLI sandwich binning; VISTA-ECD-His held by capture Ab 457.1 (competitor)
Description: as §2

RFQ-VISTA-ECD-Fc = biological target: T5, RFQ-VISTA-ECD-Fc (human); assay: ELISA, 10 ug/mL antibody on plate-bound mutant VISTA-Fc
T5 construct: also called hVISTA ECD-Fc R54A, F62A, Q63A; human VISTA-Fc 54A62A63A
Description: (§3) ELISA was used to measure antibody binding to wild-type and mutant VISTA essentially as described above. VISTA-Fc (5 μg/mL) was immobilized on Maxisorb 96-well ELISA plates and reacted with each antibody diluted to 10 μg/mL in a standard ELISA format. Binding data were reported as absorbance at 450 nm.

[10] = biological target: T4, his-tagged human VISTA-ECD; assay: BLI sandwich binning; VISTA-ECD-His held by capture Ab 465.1 (competitor)
Description: as §2

[11] = biological target: T4, his-tagged human VISTA-ECD; assay: BLI sandwich binning; VISTA-ECD-His held by capture Ab 321.1 (competitor)
Description: as §2

[12] = biological target: T3, His-tagged recombinant cynomolgus …; assay: ELISA endpoint, His-VISTA on plate, mAb at 2 µg/mL
Description: (§4) Nickel-coated 96-well ELISA plates (Thermo Scientific) or Maxisorb 96-well polystyrene ELISA plates were coated overnight at 4° C. with 50 μL of a 0.5-1 μg/mL solution of His-tagged VISTA protein (SinoBiological, Met1-Ala194 produced in HE293 cells) in 0.1M NaHCO₃ pH 9.6. All subsequent incubations were performed at room temperature. Wells were washed 3 times with PBST (0.05% Tween 20) and blocked for 2 h with 200 μL 5% BSA in PBST. […] Each antibody dilution was incubated at 50-100 μL/well in the ELISA plate for 1 h, after which plates were washed 3 times with PBST and incubated with a 1:20,000 dilution of Biotin SP AffiniPure Donkey Anti-Human IgG (H+L) polyclonal antibody (Jackson ImmunoResearch, 50-100 μL/well) for 1 h. Wells were washed 3 times with PBST, and the plates were incubated with 50-100 μL of a 1:200 dilution of Streptavidin-HRP (R&D Systems) for 30 min. Wells were washed 3 times with PBST and developed with 100 μL 1-Step Ultra Fast TMB Substrate (Thermo Scientific) for 2 minutes. The reaction was stopped with 100 μL 2N H₂SO₄, and plate well absorbance was measured at 450 nm (Biotek ELx808).

[13] = biological target: T1, His-tagged recombinant human VISTA-ECD …; assay: ELISA endpoint, His-VISTA on plate, mAb at 2 µg/mL
Description: as §4

[14] = biological target: T1, His-tagged recombinant human VISTA-ECD …; assay: BLI Octet, mAb on AHC sensor, hu VISTA-ECD-His 50 nM
Description: as §1

[15] = biological target: T6, His-tagged recombinant mouse VISTA-ECD (Met 1 to Ala 194) (Sino Biological) (mouse, UniProt Q9D659 33-194); assay: BLI (Octet Red 96), antibody on AHC sensor
T6 construct: not shown: His tag
T6 sequence: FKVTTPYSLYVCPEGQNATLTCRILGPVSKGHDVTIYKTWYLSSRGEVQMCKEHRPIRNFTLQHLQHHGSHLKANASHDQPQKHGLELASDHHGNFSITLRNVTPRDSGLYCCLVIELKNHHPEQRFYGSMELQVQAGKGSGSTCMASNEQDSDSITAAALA

[16] = biological target: T7, hVISTA ECD-Fc R54A, F62A, Q63A (human); assay: ELISA on immobilized VISTA-Fc (5 µg/mL), antibody at 10 µg/mL
T7 construct: also called human VISTA-Fc 54A62A63A; triple VISTA-Fc mutant
Description: as §3

EC50 [1]: 0.475 µg/mL
Kd [2]: < 1 pM
endpoint absorbance (450 nm) [3]: 0.079
Response [4]: 0.434
B1: Antibody No. 269.1 (antibody, human IgG1, kappa)
heavy: not shown
light: EIVLTQSPDFQSVTPKEKVTITCRASQSIGSSLHWYQQKPDQSPKLLIKYASQSISGVPSRFSGSGSGTDFTLTINSLEAEDAAAYYCHQSSSLPQTFGQGTKVEIKRTVAAPSVFIFPPSDEQLKSGTASVVCLLNNFYPREAKVQWKVDNALQSGNSQESVTEQDSKDSTYSLSSTLTLSKADYEKHKVYACEVTHQGLSSPVTKSFNRGEC
notes: Human IgG1, kappa

BLI response of secondary antibody [5]: 0.0261 nm
BLI response of secondary antibody [6]: 0.066 nm
BLI response of secondary antibody [7]: 0.0651 nm
BLI response of secondary antibody [8]: 0.0319 nm
BLI response of secondary antibody [9]: 0.0507 nm
ELISA Abs 450 nm (RFQ-VISTA-ECD-Fc): 1.65 Abs 450 nm
BLI response of secondary antibody [10]: 0.0505 nm
BLI response of secondary antibody [11]: 0.0542 nm
B2: Antibody No. 269.1 (antibody, human IgG1, kappa)
heavy: not shown
light: EIVLTQSPDFQSVTPKEKVTITCRASQSIGSSLHWYQQKPDQSPKLLIKYASQSISGVPSRFSGSGSGTDFTLTINSLEAEDAAAYYCHQSSSLPQTFGQGTKVEIKRTVAAPSVFIFPPSDEQLKSGTASVVCLLNNFYPREAKVQWKVDNALQSGNSQESVTEQDSKDSTYSLSSTLTLSKADYEKHKVYACEVTHQGLSSPVTKSFNRGEC
notes: human IgG1

ELISA Abs 450 nm (RFQ-VISTA-ECD-Fc): 1.56 Abs 450 nm
B3: Antibody No. 833.1 (antibody, human IgG1, kappa)
heavy: not shown
light: EIVLTQSPDFQSVTPKEKVTITCRASQSIGSSLHWYQQKPDQSPKLLIKYASQSISGVPSRFSGSGSGTDFTLTINSLEAEDAAAYYCHQSSSLPQTFGQGTKVEIKRTVAAPSVFIFPPSDEQLKSGTASVVCLLNNFYPREAKVQWKVDNALQSGNSQESVTEQDSKDSTYSLSSTLTLSKADYEKHKVYACEVTHQGLSSPVTKSFNRGEC
notes: human IgG1; also called Ab No. 833.1

EC50 [1]: 0.074 µg/mL and 0.5 nM
endpoint absorbance (450 nm) [12]: 1.89
endpoint absorbance (450 nm) [13]: 2.02
Response [14]: 0.334
B4: Antibody No. 833.1 (antibody, human IgG1, kappa)
heavy: not shown
light: EIVLTQSPDFQSVTPKEKVTITCRASQSIGSSLHWYQQKPDQSPKLLIKYASQSISGVPSRFSGSGSGTDFTLTINSLEAEDAAAYYCHQSSSLPQTFGQGTKVEIKRTVAAPSVFIFPPSDEQLKSGTASVVCLLNNFYPREAKVQWKVDNALQSGNSQESVTEQDSKDSTYSLSSTLTLSKADYEKHKVYACEVTHQGLSSPVTKSFNRGEC
notes: Human IgG1, kappa; also called Ab No. 833.1

binding result [15]: no binding (tested: 50 nM-300 nM)
binding result [16]: binds
B5: Antibody No. 833.1 (antibody, human IgG1, kappa)
light: EIVLTQSPDFQSVTPKEKVTITCRASQSIGSSLHWYQQKPDQSPKLLIKYASQSISGVPSRFSGSGSGTDFTLTINSLEAEDAAAYYCHQSSSLPQTFGQGTKVEIKRTVAAPSVFIFPPSDEQLKSGTASVVCLLNNFYPREAKVQWKVDNALQSGNSQESVTEQDSKDSTYSLSSTLTLSKADYEKHKVYACEVTHQGLSSPVTKSFNRGEC
heavy: not shown
notes: also called Ab No. 833.1

EC50 [1]: 0.394 µg/mL
endpoint absorbance (450 nm) [12]: 2
endpoint absorbance (450 nm) [13]: 2.04
endpoint absorbance (450 nm) [3]: 0.082
Response [4]: 0.456
B6: Antibody No. 457.1 (antibody, human IgG1, kappa)
heavy: not shown
light: EIVLTQSPATLSLSPGERATLSCGASQSVSSNYLAWYQQKPGLAPRLLIYGASSRATGVPDRFSGSGSGTDFTLTISRLEPEDFAVYYCQQYGYSYTFGQGTKLEIKRTVAAPSVFIFPPSDEQLKSGTASVVCLLNNFYPREAKVQWKVDNALQSGNSQESVTEQDSKDSTYSLSSTLTLSKADYEKHKVYACEVTHQGLSSPVTKSFNRGEC
notes: Human IgG1, kappa

binding result [16]: binds
B7: Antibody No. 457.1 (antibody, human IgG1, kappa)
light: EIVLTQSPATLSLSPGERATLSCGASQSVSSNYLAWYQQKPGLAPRLLIYGASSRATGVPDRFSGSGSGTDFTLTISRLEPEDFAVYYCQQYGYSYTFGQGTKLEIKRTVAAPSVFIFPPSDEQLKSGTASVVCLLNNFYPREAKVQWKVDNALQSGNSQESVTEQDSKDSTYSLSSTLTLSKADYEKHKVYACEVTHQGLSSPVTKSFNRGEC
heavy: not shown

BLI response of secondary antibody [5]: 0.0285 nm
BLI response of secondary antibody [6]: 0.0173 nm
BLI response of secondary antibody [7]: 0.0675 nm
BLI response of secondary antibody [8]: 0.0427 nm
BLI response of secondary antibody [9]: 0.0481 nm
ELISA Abs 450 nm (RFQ-VISTA-ECD-Fc): 1.6 Abs 450 nm
BLI response of secondary antibody [10]: 0.044 nm
BLI response of secondary antibody [11]: 0.0481 nm
B8: Antibody No. 457.1 (antibody, human IgG1, kappa)
heavy: not shown
light: EIVLTQSPATLSLSPGERATLSCGASQSVSSNYLAWYQQKPGLAPRLLIYGASSRATGVPDRFSGSGSGTDFTLTISRLEPEDFAVYYCQQYGYSYTFGQGTKLEIKRTVAAPSVFIFPPSDEQLKSGTASVVCLLNNFYPREAKVQWKVDNALQSGNSQESVTEQDSKDSTYSLSSTLTLSKADYEKHKVYACEVTHQGLSSPVTKSFNRGEC
notes: human IgG1
